Data reported in patent US6753151B1, “Interactions of Ku polypeptides and applications thereof” (Kudos Pharmaceuticals Limited, priority 1999, dated 2004).

Assays:
[1] = target: T1, full length Ku80 (Homo sapiens, UniProt P13010); experiment: GST pull-down of Ku80 from biotinylated bacterial extract by GST-Ku70 derivatives; type: binding; settings: GST-fusion on glutathione agarose beads, biotinylated bacterial extract containing Ku80, seven NETN washes, streptavidin-HRP blot
T1 construct: incubated with biotinylated bacterial cell extracts containing full length Ku80; made in house; host or cells: E. coli BL21 pLysS
Description: (§1) Full length Ku70 and Ku80 were cloned in frame with the glutathione binding domain of human glutathione S-transferase (GST) by sub-cloning into pGEX2TKP (a derivative of […] by Pharmacia). Deletion mutants of Ku70 and Ku80 were cloned by Pfu polymerase amplification and cloning into pGEX2TKP. Expression from all pGEX2TKP constructs was carried out in either DH5α or DS941 strains of E. coli. Bacterial cell extracts were produced by sonication in Phosphate-buffered saline (PBS; 138 mM NaCl, 3 mM KCl, 10 mM Phosphate buffer pH 7.4) containing 1% Triton-X100 (Sigma) and protease inhibitor tablets (Boehringer). GST-fusion proteins were purified by passing bacterial lysates over Glutathione Agarose beads (Pharmacia) and washing extensively in PBS containing 1% Triton-X100 and then in PBS alone. The beads/proteins were stored at −80° C. prior to use.
Ku70 and Ku80 were cloned into pET30a (Novagen) to generate a N-terminal hexa-Histidine tag and expressed at low levels in E. coli (BL21 pLysS). […]
(§2) In a complementary approach to the yeast 2-hybrid technique, the inventors used a “pull-down” assay to detect interactions between recombinant deletion derivatives of the two Ku subunits. […] Interacting proteins were detected by probing these western blots with streptavidin that was conjugated to horse radish peroxidase (HRP). […]

[2] = target: T2, full length Ku70 (Homo sapiens, UniProt P12956); experiment: GST pull-down of Ku70 from biotinylated bacterial extract by GST-Ku80 derivatives; type: binding; settings: GST-fusion on glutathione agarose beads; biotinylated bacterial extract containing Ku70; seven NETN washes; streptavidin-HRP blot
T2 construct: incubated with biotinylated bacterial cell extracts containing full length Ku70; made in house; host or cells: E. coli BL21 pLysS
Description: as §1, with “use. […]” for “use.”
as §2
The inventors tested a range of Ku80 deletion derivatives expressed as GST-fusions for their ability to interact with full-length Ku70. […]

T1 sequence (P13010 whole entry, the tested form may be a part): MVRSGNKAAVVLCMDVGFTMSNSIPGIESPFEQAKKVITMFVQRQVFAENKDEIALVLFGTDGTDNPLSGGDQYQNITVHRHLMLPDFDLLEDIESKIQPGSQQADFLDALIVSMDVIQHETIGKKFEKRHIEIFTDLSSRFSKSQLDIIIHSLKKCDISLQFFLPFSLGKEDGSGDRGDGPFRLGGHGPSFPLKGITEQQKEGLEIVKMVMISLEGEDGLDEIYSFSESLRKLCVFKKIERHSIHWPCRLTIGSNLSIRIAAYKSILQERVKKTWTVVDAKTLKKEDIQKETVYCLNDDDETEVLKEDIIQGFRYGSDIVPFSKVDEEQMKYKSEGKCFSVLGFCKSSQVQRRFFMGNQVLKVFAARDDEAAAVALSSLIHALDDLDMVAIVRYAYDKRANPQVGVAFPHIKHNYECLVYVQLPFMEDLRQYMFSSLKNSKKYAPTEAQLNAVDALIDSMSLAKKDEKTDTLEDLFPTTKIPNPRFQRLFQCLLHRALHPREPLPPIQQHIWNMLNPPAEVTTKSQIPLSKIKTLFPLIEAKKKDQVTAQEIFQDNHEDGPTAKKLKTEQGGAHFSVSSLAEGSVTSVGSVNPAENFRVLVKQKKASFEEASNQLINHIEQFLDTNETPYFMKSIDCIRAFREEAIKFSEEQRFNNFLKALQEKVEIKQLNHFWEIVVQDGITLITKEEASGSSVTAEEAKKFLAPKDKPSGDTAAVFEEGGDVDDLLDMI
T2 sequence (P12956 whole entry, the tested form may be a part): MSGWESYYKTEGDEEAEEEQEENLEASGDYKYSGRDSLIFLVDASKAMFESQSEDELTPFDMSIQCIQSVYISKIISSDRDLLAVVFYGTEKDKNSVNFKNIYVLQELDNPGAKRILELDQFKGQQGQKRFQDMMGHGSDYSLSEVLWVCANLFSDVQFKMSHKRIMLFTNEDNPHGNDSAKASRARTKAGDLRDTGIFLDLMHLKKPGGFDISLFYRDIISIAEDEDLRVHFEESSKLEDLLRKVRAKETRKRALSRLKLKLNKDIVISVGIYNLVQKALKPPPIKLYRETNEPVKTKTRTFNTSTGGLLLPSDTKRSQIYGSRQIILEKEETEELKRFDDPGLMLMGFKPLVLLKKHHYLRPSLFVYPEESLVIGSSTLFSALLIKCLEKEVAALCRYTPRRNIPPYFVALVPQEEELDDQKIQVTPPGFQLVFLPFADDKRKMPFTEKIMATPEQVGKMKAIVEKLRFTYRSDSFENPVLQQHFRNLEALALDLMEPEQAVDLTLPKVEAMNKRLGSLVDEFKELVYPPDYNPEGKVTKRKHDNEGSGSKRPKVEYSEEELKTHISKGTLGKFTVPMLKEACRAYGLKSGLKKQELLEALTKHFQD

Row | Substance | interaction with full-length Ku80 [1] | interaction with full-length Ku80 ([1]; listed as Full-length Ku70) | interaction with full-length Ku70 [2]
1 | GST-Ku70: full length human Ku70 fused to glutathione S-transferase, expressed in E. coli | only a single species is retained efficiently on the beads | binds to Ku80 efficiently | –
2 | GST-Ku80: full length human Ku80 fused to glutathione S-transferase, expressed in E. coli | – | – | only a single species is retained efficiently on the beads
